Source: patent US20160136234A1

Tests used:
Test in all cases: cell-based or functional assay
BrSK2 (h) (human) = target: T1, BrSK2 (h) (human) (UniProt Q8IWQ3)
T1 sequence (looked up): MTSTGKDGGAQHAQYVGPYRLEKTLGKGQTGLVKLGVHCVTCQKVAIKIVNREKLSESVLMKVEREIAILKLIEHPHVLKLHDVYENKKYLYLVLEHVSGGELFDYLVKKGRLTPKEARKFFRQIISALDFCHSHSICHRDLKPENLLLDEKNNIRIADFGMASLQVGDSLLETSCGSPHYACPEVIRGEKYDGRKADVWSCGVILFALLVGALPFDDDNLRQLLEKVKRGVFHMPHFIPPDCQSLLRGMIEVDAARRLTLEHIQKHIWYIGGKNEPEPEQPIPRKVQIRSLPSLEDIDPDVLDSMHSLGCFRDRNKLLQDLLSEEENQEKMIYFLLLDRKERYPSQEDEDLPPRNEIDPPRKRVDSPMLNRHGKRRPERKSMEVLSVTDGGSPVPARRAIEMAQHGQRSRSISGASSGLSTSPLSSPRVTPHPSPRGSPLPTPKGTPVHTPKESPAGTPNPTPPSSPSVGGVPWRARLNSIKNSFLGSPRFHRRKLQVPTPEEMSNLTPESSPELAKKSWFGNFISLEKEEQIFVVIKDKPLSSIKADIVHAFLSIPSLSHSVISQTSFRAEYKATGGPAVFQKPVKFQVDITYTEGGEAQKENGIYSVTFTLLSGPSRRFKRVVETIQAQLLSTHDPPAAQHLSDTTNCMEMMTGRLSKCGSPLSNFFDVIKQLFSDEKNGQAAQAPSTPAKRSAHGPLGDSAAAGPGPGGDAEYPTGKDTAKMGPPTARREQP

CHK2(R145W) (h) (human) = CHK2(R145W) (h) (human) (UniProt O96017)
Sequence of CHK2(R145W) (h) (human) (O96017 5-543 R145W limits assumed): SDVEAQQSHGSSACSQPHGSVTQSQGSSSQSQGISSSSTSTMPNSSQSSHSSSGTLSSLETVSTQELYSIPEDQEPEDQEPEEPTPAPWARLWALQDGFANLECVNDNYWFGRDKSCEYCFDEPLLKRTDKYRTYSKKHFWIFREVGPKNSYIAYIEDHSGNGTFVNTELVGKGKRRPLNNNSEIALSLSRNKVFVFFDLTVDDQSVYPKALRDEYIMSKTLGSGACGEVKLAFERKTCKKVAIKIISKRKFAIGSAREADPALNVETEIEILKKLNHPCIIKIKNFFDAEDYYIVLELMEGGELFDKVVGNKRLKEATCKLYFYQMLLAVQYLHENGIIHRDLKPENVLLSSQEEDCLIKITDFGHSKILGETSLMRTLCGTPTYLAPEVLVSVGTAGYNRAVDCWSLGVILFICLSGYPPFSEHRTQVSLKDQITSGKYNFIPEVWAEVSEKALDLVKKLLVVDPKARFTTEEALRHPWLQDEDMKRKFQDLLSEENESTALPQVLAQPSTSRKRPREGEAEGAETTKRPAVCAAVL

CaMKIIδ (h) (human) = CaMKIIδ (h) (human) (UniProt Q13557)
EphB4 (h) (human) = EphB4 (h) (human) (UniProt P54760)
Sequence of EphB4 (h) (human) (P54760 561-987 limits assumed): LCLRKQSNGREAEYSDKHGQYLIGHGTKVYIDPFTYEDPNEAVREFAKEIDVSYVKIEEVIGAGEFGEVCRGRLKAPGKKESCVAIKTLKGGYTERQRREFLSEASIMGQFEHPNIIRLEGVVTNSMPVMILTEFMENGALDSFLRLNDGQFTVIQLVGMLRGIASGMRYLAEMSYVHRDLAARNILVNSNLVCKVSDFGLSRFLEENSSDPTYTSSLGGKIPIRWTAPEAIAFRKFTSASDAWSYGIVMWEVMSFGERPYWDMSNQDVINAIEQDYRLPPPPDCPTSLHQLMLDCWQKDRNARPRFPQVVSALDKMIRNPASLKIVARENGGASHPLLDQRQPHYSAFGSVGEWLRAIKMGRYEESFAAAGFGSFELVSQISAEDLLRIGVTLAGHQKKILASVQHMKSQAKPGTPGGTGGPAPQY

Fms(Y969C) (h) (human) = target: T2, Fms(Y969C) (h) (human) (UniProt P07333)
T2 sequence (looked up): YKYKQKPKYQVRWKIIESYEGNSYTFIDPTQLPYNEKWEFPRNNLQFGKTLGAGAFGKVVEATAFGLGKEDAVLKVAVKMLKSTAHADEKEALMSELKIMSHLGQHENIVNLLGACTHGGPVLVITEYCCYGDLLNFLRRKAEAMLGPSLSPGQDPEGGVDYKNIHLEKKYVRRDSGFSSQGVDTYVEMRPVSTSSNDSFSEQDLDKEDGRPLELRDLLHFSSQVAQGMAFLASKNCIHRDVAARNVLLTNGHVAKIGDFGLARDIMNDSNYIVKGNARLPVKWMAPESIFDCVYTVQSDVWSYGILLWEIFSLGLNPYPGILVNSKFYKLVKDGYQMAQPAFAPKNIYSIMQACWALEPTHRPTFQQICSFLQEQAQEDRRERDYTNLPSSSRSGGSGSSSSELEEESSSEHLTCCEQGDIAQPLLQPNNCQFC

[1] = target: Lck (h) activated (human) (UniProt P06239)
PTK5 (h) (human) = PTK5 (h) (human) (UniProt P42685)
Sequence of PTK5 (h) (human) (P42685 whole entry): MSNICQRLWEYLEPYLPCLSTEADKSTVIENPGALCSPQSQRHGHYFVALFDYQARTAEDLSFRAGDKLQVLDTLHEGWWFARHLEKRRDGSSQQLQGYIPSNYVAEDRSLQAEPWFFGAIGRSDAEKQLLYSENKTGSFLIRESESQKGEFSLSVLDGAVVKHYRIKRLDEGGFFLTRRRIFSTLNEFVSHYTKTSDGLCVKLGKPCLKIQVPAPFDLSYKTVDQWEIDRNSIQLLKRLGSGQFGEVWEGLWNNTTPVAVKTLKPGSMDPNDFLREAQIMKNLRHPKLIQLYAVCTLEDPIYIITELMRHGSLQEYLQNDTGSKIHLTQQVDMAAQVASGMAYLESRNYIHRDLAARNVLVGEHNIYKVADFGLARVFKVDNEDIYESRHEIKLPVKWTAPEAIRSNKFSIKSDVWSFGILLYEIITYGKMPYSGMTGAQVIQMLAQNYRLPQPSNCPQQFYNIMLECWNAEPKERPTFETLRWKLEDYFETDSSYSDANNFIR

Plk3 (h) (human) = Plk3 (h) (human) (UniProt Q9H4B4)
Rsk4 (h) (human) = Rsk4 (h) (human) (UniProt Q9UK32)
Sequence of Rsk4 (h) (human) (Q9UK32 whole entry): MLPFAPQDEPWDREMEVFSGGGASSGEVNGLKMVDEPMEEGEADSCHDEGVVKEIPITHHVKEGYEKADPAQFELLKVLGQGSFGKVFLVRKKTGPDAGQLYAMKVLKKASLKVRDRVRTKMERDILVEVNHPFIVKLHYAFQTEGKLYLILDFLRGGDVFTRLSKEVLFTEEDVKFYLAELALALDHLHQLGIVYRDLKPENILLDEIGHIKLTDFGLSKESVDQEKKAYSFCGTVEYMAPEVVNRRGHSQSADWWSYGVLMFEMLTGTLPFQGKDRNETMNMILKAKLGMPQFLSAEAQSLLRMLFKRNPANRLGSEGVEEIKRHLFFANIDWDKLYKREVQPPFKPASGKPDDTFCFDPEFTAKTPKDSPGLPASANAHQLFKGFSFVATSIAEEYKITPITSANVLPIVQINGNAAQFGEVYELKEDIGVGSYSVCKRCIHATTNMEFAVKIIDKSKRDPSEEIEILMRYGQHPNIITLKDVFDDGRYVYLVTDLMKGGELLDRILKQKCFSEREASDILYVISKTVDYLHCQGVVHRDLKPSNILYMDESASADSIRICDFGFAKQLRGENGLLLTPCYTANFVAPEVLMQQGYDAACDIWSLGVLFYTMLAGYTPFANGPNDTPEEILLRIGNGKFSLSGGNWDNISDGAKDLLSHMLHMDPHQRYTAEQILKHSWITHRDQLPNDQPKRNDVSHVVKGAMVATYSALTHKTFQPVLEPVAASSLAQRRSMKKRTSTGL

TAK1 (h) (human) = target: T3, TAK1 (h) (human) (UniProt O43318)
T3 sequence (looked up): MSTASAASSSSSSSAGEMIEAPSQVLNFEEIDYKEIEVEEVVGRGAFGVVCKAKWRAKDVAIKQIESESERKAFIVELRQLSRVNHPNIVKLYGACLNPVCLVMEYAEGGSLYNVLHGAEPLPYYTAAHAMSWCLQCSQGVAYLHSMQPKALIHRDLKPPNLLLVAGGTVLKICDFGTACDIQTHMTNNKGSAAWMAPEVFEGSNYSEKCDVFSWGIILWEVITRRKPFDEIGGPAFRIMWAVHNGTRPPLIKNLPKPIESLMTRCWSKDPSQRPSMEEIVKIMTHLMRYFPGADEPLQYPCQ

ULK2 (h) (human) = target: T4, ULK2 (h) (human) (UniProt Q8IYT8)
T4 sequence (looked up): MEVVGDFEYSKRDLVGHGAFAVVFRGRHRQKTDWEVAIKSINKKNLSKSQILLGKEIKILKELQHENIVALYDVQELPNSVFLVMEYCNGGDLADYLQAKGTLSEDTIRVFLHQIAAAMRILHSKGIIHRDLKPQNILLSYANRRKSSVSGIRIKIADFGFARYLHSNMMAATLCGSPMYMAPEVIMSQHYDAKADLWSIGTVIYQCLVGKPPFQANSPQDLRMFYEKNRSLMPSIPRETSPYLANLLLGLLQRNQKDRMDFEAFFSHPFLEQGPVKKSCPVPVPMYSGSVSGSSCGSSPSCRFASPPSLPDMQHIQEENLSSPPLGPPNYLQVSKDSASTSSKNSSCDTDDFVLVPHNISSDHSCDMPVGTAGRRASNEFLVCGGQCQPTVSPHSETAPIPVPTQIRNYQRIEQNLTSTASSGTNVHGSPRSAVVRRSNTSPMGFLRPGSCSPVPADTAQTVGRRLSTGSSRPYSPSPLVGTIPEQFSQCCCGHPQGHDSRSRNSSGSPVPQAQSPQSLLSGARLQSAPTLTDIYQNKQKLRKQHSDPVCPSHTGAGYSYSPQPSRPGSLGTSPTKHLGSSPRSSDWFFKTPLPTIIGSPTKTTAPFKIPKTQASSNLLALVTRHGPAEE

Yes (h) (human) = Yes (h) (human) (UniProt P07947)

% activity at 100 µM (BrSK2 (h) (human)): 83% | % activity at 100 µM (CHK2(R145W) (h) (human)): 33% | % activity at 100 µM (CaMKIIδ (h) (human)): 1% | % activity at 100 µM (EphB4 (h) (human)): 44% | % activity at 100 µM (Fms(Y969C) (h) (human)): 72% | % activity at 100 µM [1]: 243% | % activity at 100 µM (PTK5 (h) (human)): 132% | % activity at 100 µM (Plk3 (h) (human)): 127% | % activity at 100 µM (Rsk4 (h) (human)): 90% | % activity at 100 µM (TAK1 (h) (human)): 122% | % activity at 100 µM (ULK2 (h) (human)): 122% | % activity at 100 µM (Yes (h) (human)): 67%
Substance: MMI-0300 (peptide)
